In patent US20240287172A1 (SCIRHOM, published 2024):

Key:
[1] = molecular target: T1, human iRhom2, endogenously expressed (human, UniProt Q6PJF5 1-856); assay: cell-based or functional assay
T1 sequence: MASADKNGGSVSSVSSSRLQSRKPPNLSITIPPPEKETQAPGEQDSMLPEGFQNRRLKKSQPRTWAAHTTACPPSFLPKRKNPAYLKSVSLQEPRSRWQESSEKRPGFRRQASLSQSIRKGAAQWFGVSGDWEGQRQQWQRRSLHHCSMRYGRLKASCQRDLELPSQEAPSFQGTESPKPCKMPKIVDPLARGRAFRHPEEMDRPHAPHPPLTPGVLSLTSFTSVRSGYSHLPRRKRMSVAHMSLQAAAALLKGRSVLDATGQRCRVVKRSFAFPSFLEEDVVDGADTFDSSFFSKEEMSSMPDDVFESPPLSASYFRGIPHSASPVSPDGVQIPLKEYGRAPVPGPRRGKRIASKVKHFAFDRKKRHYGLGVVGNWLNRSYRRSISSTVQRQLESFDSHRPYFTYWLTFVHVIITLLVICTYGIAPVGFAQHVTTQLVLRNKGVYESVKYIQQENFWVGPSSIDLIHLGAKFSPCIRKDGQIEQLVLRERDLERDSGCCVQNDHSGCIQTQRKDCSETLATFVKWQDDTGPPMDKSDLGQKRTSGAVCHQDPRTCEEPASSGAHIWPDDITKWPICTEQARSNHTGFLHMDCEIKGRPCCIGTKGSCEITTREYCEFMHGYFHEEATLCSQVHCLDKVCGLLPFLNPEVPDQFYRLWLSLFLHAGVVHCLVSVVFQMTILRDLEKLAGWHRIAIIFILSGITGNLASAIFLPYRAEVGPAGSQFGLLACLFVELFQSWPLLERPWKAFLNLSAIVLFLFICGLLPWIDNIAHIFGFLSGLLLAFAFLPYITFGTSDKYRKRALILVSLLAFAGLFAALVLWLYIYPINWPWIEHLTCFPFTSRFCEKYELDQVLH

miR2-FL-WT-FLAG = molecular target: T2, miR2-FL-WT-FLAG (mouse, UniProt Q80WQ6 1-827); assay: FACS, MEF-DKO-miR2-FL-WT-FLAG cells
T2 construct: on MEF-DKO cells
T2 sequence: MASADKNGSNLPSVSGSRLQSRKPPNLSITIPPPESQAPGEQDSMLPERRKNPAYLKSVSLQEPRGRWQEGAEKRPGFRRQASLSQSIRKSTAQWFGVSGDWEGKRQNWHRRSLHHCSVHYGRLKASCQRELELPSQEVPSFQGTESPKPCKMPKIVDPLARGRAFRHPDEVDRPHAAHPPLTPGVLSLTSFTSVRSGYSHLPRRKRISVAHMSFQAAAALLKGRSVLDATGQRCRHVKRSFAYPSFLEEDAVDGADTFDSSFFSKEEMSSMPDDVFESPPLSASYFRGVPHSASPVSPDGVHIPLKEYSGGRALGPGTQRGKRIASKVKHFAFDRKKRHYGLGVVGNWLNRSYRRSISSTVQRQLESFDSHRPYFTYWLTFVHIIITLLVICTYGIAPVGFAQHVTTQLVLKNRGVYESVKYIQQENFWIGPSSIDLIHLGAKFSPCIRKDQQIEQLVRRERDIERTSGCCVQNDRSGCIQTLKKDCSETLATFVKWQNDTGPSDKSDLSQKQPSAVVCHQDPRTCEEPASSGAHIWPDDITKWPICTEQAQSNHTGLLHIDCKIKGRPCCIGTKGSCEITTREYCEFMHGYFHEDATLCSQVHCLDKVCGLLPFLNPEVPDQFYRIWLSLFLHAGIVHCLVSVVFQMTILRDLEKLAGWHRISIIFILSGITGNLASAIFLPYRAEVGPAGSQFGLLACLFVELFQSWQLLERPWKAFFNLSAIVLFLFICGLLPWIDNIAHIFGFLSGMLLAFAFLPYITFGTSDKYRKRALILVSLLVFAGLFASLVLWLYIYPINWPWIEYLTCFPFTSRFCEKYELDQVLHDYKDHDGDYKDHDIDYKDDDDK
Procedure: In brief, immortalized MEF-DKO-EV control cells, MEF-DKO-hiR2-FL-WT-FLAG cells and MEF-DKO-miR2-FL-WT-FLAG cells were harvested with 10 mM EDTA in PBS, washed and resuspended in FACS buffer (PBS, 3% FBS, 0.05% sodium azide), and seeded in Nunc U-bottom 96-well plates (Thermo Fisher Scientific, USA) at approximately 3×10⁵ cells per well. To pellet cells and remove supernatants, the plates were centrifuged at 1,500 rpm and 4° C. for 3 minutes. For primary staining, cells were resuspended in 100 μl per well of either FACS buffer alone (controls), mouse monoclonal anti-FLAG IgG (Sigma-Aldrich, USA) at 3 μg/ml FACS buffer or the antibodies of the invention also at 3 μg/ml FACS buffer and incubated on ice for 1 hour. Afterwards, plates were centrifuged at 1,500 rpm and 4° C. for 3 minutes and washed twice with 200 μl per well of FACS buffer. For secondary staining, cells were spun down and resuspended in 100 μl per well of PE-conjugated goat anti-mouse IgG F(ab′)2 detection fragment (Dianova, Germany) diluted 1:100 in FACS buffer. Protected from light, the cell suspensions were incubated on ice for 1 hour. Plates were then centrifuged at 1,500 rpm and 4° C. for 3 minutes and washed three times with 200 μl per well of FACS buffer. Finally, cells were resuspended in 150 μl per well of FACS buffer and analyzed using a BD Accuri™ C6 Plus flow cytometer (Becton Dickinson, Germany).

B1: antibody 54 (antibody, V domains shown)
VH: QVTLKESGPGILQPSQTLSLTCSFSGFSLSTFGLGVGWIRQPSGKGLECLAHIWWDDDKYSNPALKSRLTISKDTSKNQVFLKIANVDSADTATYFCARILNYGSNYWYFDVWGTGTTVTVSS
VL: QIVLTQSPALMSASPGEKVTMTCSASSSISYMYWYQQKPGSSPRLLIYDTSNLASGVPVRFSGSGSGTSFSLTVSRMEAEDAATYYCQQWNSYPLTFGAGTKLELK
notes: mouse IgG, kappa light chain; also called clone #54
LPS-induced TNFα release from THP-1 cells, percent inhibition, recombinant antibody [1]: 67.9%
binding result (miR2-FL-WT-FLAG): no binding (tested: 3 µg/ml)
